Numbering of substitutions follows the chain as printed.
B1: A4-B1 (VHH)
chain: VQLQESGGGLVQPGGSLRLSCAASGSIFSINLMGWYRQAPGKQRELVATITRGGNTNYAGSVKGRFTISRDNAKNTVYLQMNSLRPEDTAVYYCHVDEVRQSSWTTSNLWGQGTQVTVSSGGGGSGGGGSGGGGSVQLQESGGGLVQPGGSLRLSCAASGSIFSINLMGWYRQAPGKQRELVATITRGGNTNYAGSVKGRFTISRDNAKNTVYLQMNSLRPEDTAVYYCHVDEVRQSSWTTSNLWGQGTQVTVSS
B2: A4-B2 (bispecific antibody)
chain: VQLQESGGGLVQAGGSLRLSCAASGSRFSINTMGWYRQAPGKQREFVATVTRGGNTNYAESVKGRFTISRDNAKNTVYLQMNSLRPEDTAVYYCHVDEVRDSSWTTSNIWGQGTQVTVSSGGGGSGGGGSGGGGSVQLQESGGGLVQAGGSLRLSCAASGSTFSINTMGWYRQAPGKQRELVATITRGGNTNYADSVKGRFTISRDNAKNTVYLQMNSLRPEDTAVYYCHVDEVRQSSWTTSNLWGQGTQVTVSS
B3: A4-C1 (VHH)
chain: VQLQESGGGLVQPGGSLRLSCAASGSGFSINTMGWYRQAPGKQRELVATVTRDGSTNYADFVKGRFTISRDNAKNTVYLQMNSLRPEDTAVYYCHLDEVRESSWTTSNLWGQGTQVTVSSGGGGSGGGGSGGGGSVQLQESGGGLVQPGGSLRLSCAASGSGFSINTMGWYRQAPGKQRELVATVTRDGSTNYADFVKGRFTISRDNAKNTVYLQMNSLRPEDTAVYYCHLDEVRESSWTTSNLWGQGTQVTVSSGGGGSGGGGSGGGGSVQLQESGGGLVQPGGSLRLSCAASGSGFSINTMGWYRQAPGKQRELVATVTRDGSTNYADFVKGRFTISRDNAKNTVYLQMNSLRPEDTAVYYCHLDEVRESSWTTSNLWGQGTQVTVSS
B4: A4-C2 (VHH)
chain: VQLQESGGGLVQPGGSLRLSCAASGSAFSINTMGWYRQAPGKQRELVASVTPGGSTNYADSVKGRFTISRDNAKNTIYLQMNSLRPEDTAVYYCHLDEVRESSWTTSNLWGQGTQVTVSSGGGGSGGGGSGGGGSVQLQESGGGLVQPGGSLRLSCAASGSAFSINTMGWYRQAPGKQRELVASVTPGGSTNYADSVKGRFTISRDNAKNTIYLQMNSLRPEDTAVYYCHLDEVRESSWTTSNLWGQGTQVTVSSGGGGSGGGGSGGGGSVQLQESGGGLVQPGGSLRLSCAASGSAFSINTMGWYRQAPGKQRELVASVTPGGSTNYADSVKGRFTISRDNAKNTIYLQMNSLRPEDTAVYYCHLDEVRESSWTTSNLWGQGTQVTVSS
B5: A4-C3 (bispecific antibody)
chain: VQLQESGGGLVQPGGSLRLSCAASGSIFSINLMGWYRQAPGKQRELVATITRGGNTNYAGSVKGRFTISRDNAKNTVYLQMNSLRPEDTAVYYCHVDEVRQSSWTTSNLWGQGTQVTVSSGGGGSGGGGSGGGGSVQLQESGGGLVQPGGSLRLSCAASGSIFSINLMGWYRQAPGKQRELVATITRGGNTNYAGSVKGRFTISRDNAKNTVYLQMNSLRPEDTAVYYCHVDEVRQSSWTTSNLWGQGTQVTVSSGGGGSGGGGSGGGGSVQLQESGGGLVQPGGSLRLSCAASGSNFRINTMGWYRQAPGKQRELVATVTRGGSTNYADSVKGRFTISRDNPKDTVYLQMNSLRPEDTAVYYCHVDEVRESSWTTSNLWGQGTQVTVSS
B6: A4-C4 (bispecific antibody)
chain: VQLQESGGGLVQAGGSLRLSCAASGSRFSINTMGWYRQAPGKQREFVATVTRGGNTNYAESVKGRFTISRDNAKNTVYLQMNSLRPEDTAVYYCHVDEVRDSSWTTSNIWGQGTQVTVSSGGGGSGGGGSGGGGSVQLQESGGGLVQAGGSLRLSCAASGSRFSINTMGWYRQAPGKQREFVATVTRGGNTNYAESVKGRFTISRDNAKNTVYLQMNSLRPEDTAVYYCHVDEVRDSSWTTSNIWGQGTQVTVSSGGGGSGGGGSGGGGSVQLQESGGGLVQPGGSLRLSCAASGSNFRINTMGWYRQAPGKQRELVATVTRGGSTNYADSVKGRFTISRDNPKDTVYLQMNSLRPEDTAVYYCHVDEVRESSWTTSNLWGQGTQVTVSS
B7: A4-C5 (bispecific antibody)
chain: VQLQESGGGLVQPGGSLRLSCAASGSNFRINTMGWYRQAPGKQRELVATVTRGGSTNYADSVKGRFTISRDNPKNTVYLQMNSLRPEDTAVYYCHVDEVRESSWTTSNLWGQGTQVTVSSGGGGSGGGGSGGGGSVQLQESGGGLVQPGGSLRLSCAASGSNFSINTMGWYRQAPGKQRELVATVTRGGDTNYADSVKGRFTISRDNAKNTVYLQMNSLRPEDTAVYYCHVDEIRESSWTTSNLWGQGTQVTVSSGGGGSGGGGSGGGGSVQLQESGGGLVQPGGSLRLSCAASGSNFRINTMGWYRQAPGKQRELVATVTRGGSTNYADSVKGRFTISRDNPKNTVYLQMNSLRPEDTAVYYCHVDEVRESSWTTSNLWGQGTQVTVSS
B8: A4-C6 (bispecific antibody)
chain: B7 chain with T49P, P73A, T184A, V185L, D190S, I234V, R299S, S325D, P343A, V369I
B9: A4-C7 (bispecific antibody)
chain: VQLQESGGGLVQPGGSLRLSCAASGSNFSINTMGWYRQAPGKQRELVATVTRGGDTNYADSVKGRFTISRDNAKNTVYLQMNSLRPEDTAVYYCHVDEIRESSWTTSNLWGQGTQVTVSSGGGGSGGGGSGGGGSVQLQESGGGLVQPGGSLRLSCAASGSNFRINTMGWYRQAPGKQRELVAPVTRGGSTNYADSVKGRFTISRDNAKNTVYLQMNSLRPEDTAVYYCHVDEVRESSWTTSNLWGQGTQVTVSSGGGGSGGGGSGGGGSVQLQESGGGLVQPGGSLRLSCAASGSSFTINTMGWYRQAPGKQRELVAAVTRGGSTNYAGSVKGRFTISRDNAKNTIYLQMNSLRPEDTAVYYCHVDEIRQSSWTTSNLWGQGTQVTVSS
B10: A4-C8 (bispecific antibody)
chain: B7 chain with T49P, P73A, R299S, T319A, V320L, P343A
B11: A4-C9 (bispecific antibody)
chain: B7 chain with R29S, S55D, P73A, V99I, T184A, V185L, D190S, I234V, T319P, P343A
B12: A4-D1 (VHH)
chain: VQLQESGGGLAQAGGSLRLSCAASGRGFSINTMGWYRQAPGKQRELVAAVTRGGTTNYADSVKGRFTISRDNAKNTVYLQMNSLRPEDTAVYYCHVDEVRQSSWTTSNLWGQGTQVTVSSGGGGSGGGGSGGGGSVQLQESGGGLAQAGGSLRLSCAASGRGFSINTMGWYRQAPGKQRELVAAVTRGGTTNYADSVKGRFTISRDNAKNTVYLQMNSLRPEDTAVYYCHVDEVRQSSWTTSNLWGQGTQVTVSSGGGGSGGGGSGGGGSVQLQESGGGLAQAGGSLRLSCAASGRGFSINTMGWYRQAPGKQRELVAAVTRGGTTNYADSVKGRFTISRDNAKNTVYLQMNSLRPEDTAVYYCHVDEVRQSSWTTSNLWGQGTQVTVSSGGGGSGGGGSGGGGSVQLQESGGGLAQAGGSLRLSCAASGRGFSINTMGWYRQAPGKQRELVAAVTRGGTTNYADSVKGRFTISRDNAKNTVYLQMNSLRPEDTAVYYCHVDEVRQSSWTTSNLWGQGTQVTVSS

Assays:
Test in all cases: SPR, AAV on CM5 chip
[1] = target: AAV8 (adeno-associated virus serotype 8)
[2] = target: AAV9 (adeno-associated virus serotype 9)
[3] = target: AAV5 (adeno-associated virus serotype 5)

Row | Binder | Kd [1] | koff [1] | kon [1] | Kd [2] | koff [2] | kon [2] | Kd [3] | koff [3] | kon [3]
1 | B1 | 1.63 nM | 0.000154 s⁻¹ | 94500 M⁻¹ s⁻¹ | 0.715 nM | 0.00014 s⁻¹ | 196000 M⁻¹ s⁻¹ | 0.102 nM | 1.23e-05 s⁻¹ | 121000 M⁻¹ s⁻¹
2 | B2 | 1.02 nM | 0.00014 s⁻¹ | 138000 M⁻¹ s⁻¹ | 8.35 nM | 0.0008 s⁻¹ | 95800 M⁻¹ s⁻¹ | 7.38 nM | 0.00117 s⁻¹ | 159000 M⁻¹ s⁻¹
3 | B3 | 9.2 nM | 0.00164 s⁻¹ | 178000 M⁻¹ s⁻¹ | 1.03 nM | 1e-05 s⁻¹ | 9690 M⁻¹ s⁻¹ | 13.2 nM | 0.00138 s⁻¹ | 104000 M⁻¹ s⁻¹
4 | B4 | 0.359 nM | 5e-05 s⁻¹ | 139000 M⁻¹ s⁻¹ | 0.486 nM | 0.000125 s⁻¹ | 257000 M⁻¹ s⁻¹ | 0.691 nM | 0.000134 s⁻¹ | 194000 M⁻¹ s⁻¹
5 | B5 | 0.534 nM | 4e-05 s⁻¹ | 74900 M⁻¹ s⁻¹ | 0.491 nM | 9e-05 s⁻¹ | 183000 M⁻¹ s⁻¹ | 0.628 nM | 9e-05 s⁻¹ | 143000 M⁻¹ s⁻¹
6 | B6 | 2.36 nM | 0.00025 s⁻¹ | 106000 M⁻¹ s⁻¹ | 1.87 nM | 0.00031 s⁻¹ | 165000 M⁻¹ s⁻¹ | 6.72 nM | 0.00121 s⁻¹ | 180000 M⁻¹ s⁻¹
7 | B7 | 4.97 nM | 0.00091 s⁻¹ | 183000 M⁻¹ s⁻¹ | 1.68 nM | 0.0002 s⁻¹ | 119000 M⁻¹ s⁻¹ | 7.86 nM | 0.0013 s⁻¹ | 165000 M⁻¹ s⁻¹
8 | B8 | 2.67 nM | 0.00044 s⁻¹ | 165000 M⁻¹ s⁻¹ | 0.55 nM | 2.5e-05 s⁻¹ | 45400 M⁻¹ s⁻¹ | 0.785 nM | 0.000139 s⁻¹ | 177000 M⁻¹ s⁻¹
9 | B9 | 3.7 nM | 0.00047 s⁻¹ | 127000 M⁻¹ s⁻¹ | 0.127 nM | 1.75e-05 s⁻¹ | 137000 M⁻¹ s⁻¹ | 0.0732 nM | 3.2e-05 s⁻¹ | 437000 M⁻¹ s⁻¹
10 | B10 | 2.81 nM | 0.00037 s⁻¹ | 132000 M⁻¹ s⁻¹ | 0.279 nM | 5e-05 s⁻¹ | 179000 M⁻¹ s⁻¹ | 0.69 nM | 0.00013 s⁻¹ | 188000 M⁻¹ s⁻¹
11 | B11 | 1.14 nM | 0.00013 s⁻¹ | 114000 M⁻¹ s⁻¹ | 0.669 nM | 0.00013 s⁻¹ | 194000 M⁻¹ s⁻¹ | 0.777 nM | 5e-05 s⁻¹ | 64300 M⁻¹ s⁻¹
12 | B12 | 0.0543 nM | 1.81e-05 s⁻¹ | 334000 M⁻¹ s⁻¹ | 0.0533 nM | 3.1e-06 s⁻¹ | 58200 M⁻¹ s⁻¹ | 0.0576 nM | 2.2e-06 s⁻¹ | 38200 M⁻¹ s⁻¹

Source: patent publication US20260193326A1
